From US20050008653

How the values were obtained:
[1] = biological target: p53 core domain I195T I195T (UniProt P04637); assay: FP
[2] = biological target: p53 core domain wild-type (UniProt P04637); assay: FP; conditions: wild-type value quoted for comparison; CDB3 did not affect wild-type DNA binding

Gadd45 30-mer DNA was tested, and the Kd ([1]; after 1 h at 10 C with 100 uM CDB3 peptide) was 1000 nM, the Kd ([1]; no peptide, 10 C incubation, 1:1 binding fit) was 6000 nM and the Kd [2] was 800 nM.
